Measured values taken from PMC3326523 (Cell, 2012).
Blank lines part the entries; values can stand above or below the binder they belong to. Where no end group is shown, it is not given here.

T1: EP300 bromodomain (human, UniProt Q09472 1040-1161)
T1 construct: the crystallised construct may differ; also called KAT3B; source: E. coli BL21(DE3), purified (Ni-NTA, TEV, SEC)
T1 sequence: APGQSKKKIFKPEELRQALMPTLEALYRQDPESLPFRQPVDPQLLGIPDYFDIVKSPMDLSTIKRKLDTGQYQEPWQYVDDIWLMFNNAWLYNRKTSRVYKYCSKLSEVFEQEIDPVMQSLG

B1: H3K56 peptide IRRYQKacSTELLY (peptide)
peptide: IRRYQK(Ac)STELLY
notes: histone H3, human; source: synthetic peptide
B2: H4K44 peptide RRGGVKacRISGLY (peptide)
peptide: RRGGVK(Ac)RISGLY
notes: histone H4, human; source: synthetic peptide
B3: H4K44 peptide GGVKacRISGLI (peptide)
peptide: GGVK(Ac)RISGLI
notes: as for B2
B4: BRD3(2), second bromodomain of BRD3 (domain or fragment, human)
chain: GKLSEHLRYCDSILREMLSKKHAAYAWPFYKPVDAEALELHDYHDIIKHPMDLSTVKRKMDGREYPDAQGFAADVRLMFSNCYKYNPPDHEVVAMARKLQDVFEMRFAKMP
notes: BRD3, human, second bromodomain; the crystallised construct may differ; source: E. coli BL21(DE3), purified (Ni-NTA, TEV, SEC)
B5: H4K5 peptide SGRGKacGGKGLY (peptide)
peptide: SGRGK(Ac)GGKGLY
notes: as for B2
B6: PCAF bromodomain (domain or fragment, human)
chain: GKEKSKEPRDPDQLYSTLKSILQQVKSHQSAWPFMEPVKRTEAPGYYEVIRFPMDLKTMSERLKNRYYVSKKLFMADLQRVFTNCKEYNPPESEYYKCANILEKFFFSKIKEAGLID
notes: P300/CBP-associated factor, human, bromodomain; the crystallised construct may differ; also called KAT2B; source: E. coli BL21(DE3), purified (Ni-NTA, TEV, SEC)
B7: H3K56 peptide GTVALREIRRYQKacS (peptide)
peptide: GTVALREIRRYQK(Ac)S
notes: as for B1
B8: KIAA1240 bromodomain (domain or fragment, human)
chain: MEDQEENTLRELRLFLRDVTKRLATDKRFNIFSKPVDIEEVSDYLEVIKEPMDLSTVITKIDKHNYLTAKDFLKDIDLICSNALEYNPDKDPGDKIIRHRACTLKDTAHAIIAAELDPEFNKLCEEIKEARIKRG
notes: KIAA1240 protein, human, bromodomain; the crystallised construct may differ; also called ATAD2B; source: E. coli BL21(DE3), purified (Ni-NTA, TEV, SEC)
B9: H3K36 peptide ATGGVKacKPHRY (peptide)
peptide: ATGGVK(Ac)KPHRY
notes: histone H3, human; the last Y is Y41 of H3; source: synthetic peptide
B10: H3K18 peptide GKAPRKacQLATKY (peptide)
peptide: GKAPRK(Ac)QLATKY
notes: as for B1
B11: CREBBP bromodomain (domain or fragment, human)
chain: RKKIFKPEELRQALMPTLEALYRQDPESLPFRQPVDPQLLGIPDYFDIVKNPMDLSTIKRKLDTGQYQEPWQYVDDVWLMFNNAWLYNRKTSRVYKFCSKLAEVFEQEIDPVMQSLG
notes: the crystallised construct may differ; also called CBP; KAT3A; source: E. coli BL21(DE3), purified (Ni-NTA, TEV, SEC)
B12: CECR2 bromodomain (domain or fragment)
chain: not shown
notes: CECR2, human, bromodomain; the crystallised construct may differ; source: E. coli BL21(DE3), purified (Ni-NTA, TEV, SEC)
B13: H2BK85 peptide AHYNKacRSTITSRE (peptide)
peptide: AHYNK(Ac)RSTITSRE
notes: histone H2B, human; source: synthetic peptide

Tests used:
Conditions in all cases: both partners purified
[1] = target: B11; experiment: ITC; peptide (mM stock) titrated into bromodomain (about 50 μM), by the concentrations in the tables; 10 or 15°C, 50 mM HEPES pH 7.5, 150 mM NaCl; single binding site model
[2] = target: T1, EP300 bromodomain; experiment: as above
[3] = target: T2, H4K12/16/20 peptide GKacGGAKacRHRKacV (human, acetyl-lysine at K12, K16 and K20 (residues 2, 6 and 10 of the peptide)); experiment: ITC; as a1; rows with N of about 0.5 or 0.25: two or more bromodomains on one peptide, apparent binding constants, events not deconvoluted
T2 construct: histone H4, human; source: synthetic peptide

[4] = target: FALZ bromodomain (human, UniProt Q12830 2914-3037); experiment: ITC; peptide (mM stock) titrated into bromodomain (about 50 μM), by the concentrations in the tables; 10 or 15°C, 50 mM HEPES pH 7.5, 150 mM NaCl; single binding site model
[5] = target: T3, H3K14 peptide KSTGGKacAPRKQY (human, acetyl-lysine at K14 (residue 6 of the peptide)); experiment: as above
T3 construct: histone H3, human; source: synthetic peptide

[6] = target: T4, H4K8 peptide RGKGGKacGLGKGY (human, acetyl-lysine at K8 (residue 6 of the peptide)); experiment: as above
T4 construct: histone H4, human; source: synthetic peptide

[7] = target: B4; experiment: as above
[8] = target: T3, H3K14 peptide KSTGGKacAPRKQY; experiment: as above; remark: listed apart in the source
[9] = target: FALZ bromodomain (human, UniProt Q12830 2914-3037); experiment: as above; remark: listed apart in the source
[10] = target: T5, H3K9 peptide KQTARKacSTGGKY (human, acetyl-lysine at K9 (residue 6 of the peptide)); experiment: as above
T5 construct: histone H3, human; source: synthetic peptide

Binder: B1
Kd [1]: 13.8 ± 0.4 µM
stoichiometry N [1]: 0.97 ± 0.013

Binder: B2
Kd [1]: 25.3 ± 0.6 µM
stoichiometry N [1]: 1 ± 0.099

Binder: B3
Kd [1]: 82 ± 3.8 µM
stoichiometry N [1]: 1.06 ± 0.01
Kd [2]: 132 ± 6.3 µM
stoichiometry N [2]: 0.97 ± 0.088

Binder: B4
Kd [3]: 61.3 ± 1.9 µM

Binder: B5
Kd [4]: 175 ± 13.3 µM
stoichiometry N [4]: 1 ± 0.17

Binder: B6
Kd [5]: 188 ± 14.6 µM

Binder: B7
Kd [1]: 21.3 ± 1.4 µM
stoichiometry N [1]: 0.96 ± 0.025
Kd [2]: 13.4 ± 0.5 µM
stoichiometry N [2]: 0.98 ± 0.009

Binder: B8
Kd [6]: 150 ± 6.4 µM

Binder: B9
Kd [1]: 71.4 ± 1 µM
stoichiometry N [1]: 1
stoichiometry N [2]: 1 ± 0.044

Binder: B10
Kd [7]: 67.1 ± 4.5 µM
stoichiometry N [7]: 1.06 ± 0.068

Binder: B11
Kd [8]: 734 ± 90.6 µM

Kd [9]: 3.1 ± 0.1 µM
stoichiometry N [9]: 1
Binder: RRRRRK(Ac)RRRRRY [poly-R peptide RRRRRKacRRRRRY]

Binder: B12
Kd [10]: 189 ± 11.6 µM
Kd [8]: 43.9 ± 0.8 µM

Binder: B13
Kd [1]: 66.2 ± 3.8 µM
stoichiometry N [1]: 0.98 ± 0.059
